Target: T1, mouse FLT1-FC chimeric protein with His-tag (mouse, UniProt P35969 23-759)
T1 sequence (looked up): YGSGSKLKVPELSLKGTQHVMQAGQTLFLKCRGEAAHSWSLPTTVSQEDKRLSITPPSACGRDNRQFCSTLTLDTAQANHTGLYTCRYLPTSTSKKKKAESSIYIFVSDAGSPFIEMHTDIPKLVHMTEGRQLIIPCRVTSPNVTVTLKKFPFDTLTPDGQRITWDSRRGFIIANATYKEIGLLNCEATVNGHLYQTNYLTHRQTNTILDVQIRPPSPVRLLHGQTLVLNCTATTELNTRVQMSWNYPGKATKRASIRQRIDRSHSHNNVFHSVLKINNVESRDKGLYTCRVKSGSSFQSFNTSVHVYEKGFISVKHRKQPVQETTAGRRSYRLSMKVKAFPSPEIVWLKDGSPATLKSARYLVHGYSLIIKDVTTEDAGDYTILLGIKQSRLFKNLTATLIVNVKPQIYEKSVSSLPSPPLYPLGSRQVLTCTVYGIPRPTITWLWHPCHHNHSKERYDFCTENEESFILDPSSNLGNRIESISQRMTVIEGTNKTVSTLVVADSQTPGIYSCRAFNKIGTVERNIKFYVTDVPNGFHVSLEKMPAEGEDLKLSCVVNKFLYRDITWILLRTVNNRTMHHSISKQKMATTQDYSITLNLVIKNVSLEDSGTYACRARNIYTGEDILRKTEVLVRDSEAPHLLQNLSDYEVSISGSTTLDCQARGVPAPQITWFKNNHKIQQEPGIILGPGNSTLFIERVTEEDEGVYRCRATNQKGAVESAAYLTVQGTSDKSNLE
Experiment: ELISA

binding result: binds
B1: recombinant mouse PlGF2 (ligand, UniProt P49764 19-158, looked up)
chain: VHSQGALSAGNNSTEVEVVPFNEVWGRSYCRPMEKLVYILDEYPDEVSHIFSPSCVLLSRCSGCCGDEGLHCVPIKTANITMQILKIPPNRDPHFYVEMTFSQDVLCECRPILETTKAERRKTKGKRKRSRNSQTEEPHP

— doi:10.1101/609735 (bioRxiv, 2019)
